Positions count from the first letter of the chain named.
Tests used:
[1] = molecular target: T1, RSV strain A2 pre-fusion F protein (SC-TM) (human respiratory syncytial virus …, UniProt P03420 26-513); experiment: ELISA, F protein coated
T1 construct: not shown: fold-on trimerization domain and polyhistidine tag

[2] = molecular target: F protein of RSV strain Long (infectious virus) (human respiratory syncytial virus …, UniProt P12568 26-574); experiment: cell-based or functional assay
[3] = molecular target: F protein of RSV strain 18537 B (infectious virus) (human respiratory syncytial virus …, UniProt P13843 26-574); experiment: cell-based or functional assay
[4] = molecular target: F protein of RSV strain A2 (infectious virus) (human respiratory syncytial virus …, UniProt P03420 26-574); experiment: cell-based or functional assay
[5] = molecular target: T2, RSV strain A2 post-fusion F (human respiratory syncytial virus …, UniProt P03420 26-109; P03420 137-524); experiment: ELISA, F protein coated
T2 construct: extracellular domain

[6] = molecular target: T3, RSV strain 18537 post-fusion F (human respiratory syncytial virus …, UniProt P13843 26-109; P13843 137-524); experiment: ELISA, F protein coated
T3 construct: extracellular domain; also called RSV B 18537 (post)

[7] = molecular target: RSV strain A2 pre-fusion F protein (SC-TM) (human respiratory syncytial virus …, UniProt P03420 26-513); experiment: ELISA, F protein coated
[8] = molecular target: F protein of RSV strain A2 (infectious virus) (human respiratory syncytial virus …, UniProt P03420 26-574); experiment: cell-based or functional assay; remark: listed apart in the source

B1: hRSV90 (antibody, V domains shown)
VH: EVQLVESGGGLVQPRRSLRLSCAASGFTFDDYTIHWVRQAPGKGLEWVSGITWNSGYIGYADSVKGRFTISRDNARNSLYLQMNSLRAEDTALYYCVRDAYVSGSDYYYYGLDVWGRGTLVTVSS
VL: EIVMTSSPATLSVSPGERATLFCRASQSVISNLAWYQQKSGQAPRLLIYGASTRATGIPARFSGSGSGTEFTLTISSLQSEDFAVYFCQQYNNWPLTFGGGTQVNVQ
notes: also called mAb hRSV90
EC50 [1]: 0.028 µg/mL | Neutralization IC50, plaque-reduction assay [2]: 0.035 µg/mL | Neutralization IC50, plaque-reduction assay [3]: 0.045 µg/mL | Neutralization IC50, plaque-reduction assay [4]: 0.015 µg/mL

B2: hRSV12 (antibody, V domains shown)
VH: QVQLVQSGAEVKKPGTSVRVSCKTSGYNFMNYGIYWVRQAPGQGLEWVGWISAYNGQTDRAQKFQGRVTMTTDISTNTGYMDLRSLRSDDTAVYFCARGPPVIAAVSLEYWGRGTLVTVSS
VL: EVVMTQSPLSLPVTLGQPASISCKSSQSLVHSNGDTYLNWFQQRPGQSPRRLIYKVSNRDSGVPDRFSGSGSGTDFTLKISRVETEDVGVYYCMQATHWPGSFGQGTKLEIK
EC50 [5]: 0.285 µg/mL | EC50 [1]: 0.028 µg/mL | Neutralization IC50, plaque-reduction assay [2]: 0.016 µg/mL | Neutralization IC50, plaque-reduction assay [3]: 0.443 µg/mL | Neutralization IC50, plaque-reduction assay [4]: 0.141 µg/mL

B3: hRSV61 (antibody, V domains shown)
VH: QVQLVQSGAELKKPGASVKVSCKASGYTFTNHGITWVRQAPGQGLEWMSWISGYNGNTQYAQKFQGRVTMTTDTSTRTAYMELRSLTSDDTAVYYCARDNGVVVGPPDYWGQGTLVTVSS
VL: DIQMTQSPSTLSASVGDRVTISCRASQSISSWLAWYQQKPGKPPKLLIYKASGLQTGVPSRFSGSGSGTEFTLTISSLQPDDFATYYCQYYHSLSAFGQGTKVEIK
EC50 [1]: 0.027 µg/mL | Neutralization IC50, plaque-reduction assay [2]: 0.054 µg/mL | Neutralization IC50, plaque-reduction assay [3]: 0.09 µg/mL | Neutralization IC50, plaque-reduction assay [4]: 0.276 µg/mL

B4: hRSV106 (antibody, V domains shown)
VH: QITLKESGPTLVKPTQTLTLTCTFSGFSLTTRGVGVAWIRQPPGKALEWLALIYWDDDKRYRSSPKGRLTITKDNSKNQVVLIMTNMDPVDTATYYCAHAMDDSGSYYVGLSKDPHFDSWGHGTLVTVSS
VL: SYELTQPPSVSVSPGQTASITCSGDVLFNKFASWYQQKPGQSPVLVIYQDSKRPSGIPERFSGSNSGNTATLTIRGTQAMDEADYYCQARGSTAAHVIFGGGTKVTVL
EC50 [1]: 0.046 µg/mL | Neutralization IC50, plaque-reduction assay [2]: 0.043 µg/mL | Neutralization IC50, plaque-reduction assay [3]: 0.114 µg/mL | Neutralization IC50, plaque-reduction assay [4]: 0.451 µg/mL

B5: hRSV139 (antibody, V domains shown)
VH: QVQLVQSGAEVKKPGASVKVSCKASGYVFSNYGISWVRQAPGQGLEWMGWISAYNGNTEFAQKFQGRITMTTDTSTNTAYLEVRGLRSDDTAVYYCSRQSGVSGVPEFQDWGQGTLVTVSS
VL: QAVVTQSPLSLPVTLGQPASISCRSSQSLVYSNGDTYLSWFQQRPGQSPRRLIYKVSNRDSGVPDRFSASGSGTDFTLKISRVEAEDVGVYYCMQGTHWPPPTFGQGTRLEIK
EC50 [1]: 0.04 µg/mL | Neutralization IC50, plaque-reduction assay [2]: 0.07 µg/mL | Neutralization IC50, plaque-reduction assay [3]: 0.216 µg/mL | Neutralization IC50, plaque-reduction assay [4]: 0.621 µg/mL

B6: hRSV141 (antibody, V domains shown)
VH: QVQLVQSGAEVKKPGASVKVSCKASGYTFTNYYMHWVRQAPGQGLEWMGWINPNRGGTNYAQKFQGRVTMTLDTSISTAYIELSRLRSDDTAVYYCARDLTLGTDYWGQGTLVTVSS
VL: QAVVTQPASVFGFPGQSITISCTGTSSDVGGYNYVSWYQQRPGKAPKLMIYEVSNRPSGVSNRFSGSKSGNTASLTISGLQAEDEADYYCNSYTSSNSYVFGTGTKVTVL
EC50 [1]: 0.029 µg/mL | Neutralization IC50, plaque-reduction assay [2]: 0.028 µg/mL | Neutralization IC50, plaque-reduction assay [3]: 0.053 µg/mL | Neutralization IC50, plaque-reduction assay [4]: 0.626 µg/mL

B7: hRSV7 (antibody, V domains shown)
VH: EVQLVESGGGLVQPGGSLRLSCAASGFTFRNYAMSWVRQAPGKGLEWVSDISSGGDTTYYAESLKGRITISRDNSKNTLYLQMNSLRAEDAAIYFCAKHLLSPMYVNTDVFPDWYFEIWGRGTLVTVSS
VL: SYELTQPPSVSVSPGQTARITCSGDGLPKKYAYWYQQKSGQAPVLVIYDDSKRPSGIPERFSGTSSGTMATLIISGAQVEDEADYYCYSRHNSAYQRVFGAGTQLTVL
Neutralization IC50, plaque-reduction assay [2]: 0.062 µg/mL | Neutralization IC50, plaque-reduction assay [3]: 0.022 µg/mL | Neutralization IC50, plaque-reduction assay [4]: 1.33 µg/mL

B8: hRSV97 (antibody, V domains shown)
VH: EVQLVESGGTLVQPGRSLRLSCAASGFNFEEYAMHWVRQVPGKGLEWVARINWNGGIIGYADSVKGRFTISRDNAKKSLYLQMNSLRTDDSALYYCGKDVFWAVAGTGGPIDSWGQGTLVTVSS
VL: DIVMTQSPSSLSASIGDRVTISCRASRDISNYLAWYQQKSGKVPKLLIYAASTLESGVPSRFSGSGSGTDFTLTISSLQPEDVATYYCQNYNSAQMCSFGQGPSLEIK
EC50 [1]: 0.053 µg/mL | Neutralization IC50, plaque-reduction assay [2]: 0.106 µg/mL | Neutralization IC50, plaque-reduction assay [3]: 0.065 µg/mL | Neutralization IC50, plaque-reduction assay [4]: 2.23 µg/mL

B9: hRSV20 (antibody, V domains shown)
VH: QVQLVESGGGLVQPGRSLRLSCAASGFTFDDYAMHWVRQAPGRGLEWVSGISWNSGIAVYADSVKGRFTISRDNAKKSLYLQINSLRAEDTALYYCVKDNYASGSYSSYYYYYGLDLWGQGTLVTVSS
VL: EIVMTQSPATLSVSPGERATLSCRASQSIISNLAWYQQKPGQAPRLLIYGVSTRATGIPARFSGSGSDTEFTLSISSLQSEDFAVYYCQQYNNWPITFGQGTRLEIK
Neutralization IC50, plaque-reduction assay [2]: 0.014 µg/mL | Neutralization IC50, plaque-reduction assay [3]: 0.114 µg/mL | Neutralization IC50, plaque-reduction assay [4]: 0.034 µg/mL

B10: D25 (antibody, V domains shown)
VH: QVQLVQSGAEVKKPGSSVMVSCQASGGPLRNYIINWLRQAPGQGPEWMGGIIPVLGTVHYAPKFQGRVTITADESTDTAYIHLISLRSEDTAMYYCATETALVVSTTYLPHYFDNWGQGTLVTVSS
VL: DIQMTQSPSSLSAAVGDRVTITCQASQDIVNYLNWYQQKPGKAPKLLIYVASNLETGVPSRFSGSGSGTDFSLTISSLQPEDVATYYCQQYDNLPLTFGGGTKVEIKR
Neutralization IC50, plaque-reduction assay [2]: 0.009 µg/mL | Neutralization IC50, plaque-reduction assay [3]: > 1 µg/mL

B11: motavizumab (antibody, V domains shown)
VH: QVTLRESGPALVKPTQTLTLTCTFSGFSLSTAGMSVGWIRQPPGKALEWLADIWWDDKKHYNPSLKDRLTISKDTSKNQVVLKVTNMDPADTATYYCARDMIFNFYFDVWGQGTTVTVSS
VL: DIQMTQSPSTLSASVGDRVTITCSASSRVGYMHWYQQKPGKAPKLLIYDTSKLASGVPSRFSGSGSGTEFTLTISSLQPDDFATYYCFQGSGYPFTFGGGTKVEIK
EC50 [6]: 0.084 µg/mL | EC50 [5]: 0.083 µg/mL | EC50 [7]: 0.017 µg/mL | Neutralization IC50, plaque-reduction assay [2]: 0.009 µg/mL | Neutralization IC50, plaque-reduction assay [8]: 0.123 µg/mL | Neutralization IC50, plaque-reduction assay [3]: 0.091 µg/mL

B12: palivizumab (antibody, V domains shown)
VH: B11 VH with A32S, H60D, D67S, D100S, F103T, F105W, Q112A
VL: B11 VL with S24K, A25C, S26Q, S27L, R28S, V103L
EC50 [6]: 0.081 µg/mL | EC50 [5]: 0.024 µg/mL | Neutralization IC50, plaque-reduction assay [2]: 0.212 µg/mL | Neutralization IC50, plaque-reduction assay [8]: 11 µg/mL | Neutralization IC50, plaque-reduction assay [3]: 1.27 µg/mL

B13: AM14 (antibody, V domains shown)
VH: EVQLVESGGGVVQPGRSLRLSCAASGFSFSHYAMHWVRQAPGKGLEWVAVISYDGENTYYADSVKGRFSISRDNSKNTVSLQMNSLRPEDTALYYCARDRIVDDYYYYGMDVWGQGATVTVSS
VL: DIQMTQSPSSLSASVGDRVTITCQASQDIKKYLNWYHQKPGKVPELLMHDASNLETGVPSRFSGRGSGTDFTLTISSLQPEDIGTYYCQQYDNLPPLTFGGGTKVEIKR
EC50 [6]: 0.198 µg/mL | Neutralization IC50, plaque-reduction assay [2]: 0.043 µg/mL

B14: hRSV75 (antibody, V domains shown)
VH: EVQLVESGGGLVKPGGSLRLSCAASGFTFRSYSMNWVRQAPGKGLEWVSSITSSSSYIDYADSVKGRFTISRDNAKNSLYLQMNSLRAEDTAVYYCARAYCGGDCSVDHFQHWGQGTLVTVSS
VL: QSVLTQPPSVSGAPGQRVTISCTGSSSNIGAGYDVHWYQHLPGTAPKLLIYVNSNRPSGVPDRFSASKSGTSASLAITGLQAEDEADYYCQSYDKSLSGFYVFGTGTKVTVL
EC50 [1]: 0.044 µg/mL | Neutralization IC50, plaque-reduction assay [2]: 0.019 µg/mL | Neutralization IC50, plaque-reduction assay [3]: 0.062 µg/mL | Neutralization IC50, plaque-reduction assay [4]: 0.129 µg/mL

Source: patent US20190367586A1 (VANDERBILT UNIVERSITY, published 2019)
